From FireProtDB (doi:10.1016/j.jmb.2004.06.079) come the findings set out here.

For this data set the following is noted: Chloroflexus aurantiacus (strain ATCC 29366 / DSM 635 / J-10-fl), Thermal, CD, whole UniProt chain shown.

B1: Malate dehydrogenase wild type, P80040 (protein)
chain: MRKKISIIGAGFVGSTTAHWLAAKELGDIVLLDFVEGVPQGKALDLYEASPIEGFDVRVTGTNNYADTANSDVIVVTSGAPRKPGMSREDLIKVNADITRACISQAAPLSPNAVIIMVNNPLDAMTYLAAEVSGFPKERVIGQAGVLDAARYRTFIAMEAGVSVEDVQAMLMGGHGDEMVPLPRFSTISGIPVSEFIAPDRLAQIVERTRKGGGEIVNLLKTGSAYYAPAAATAQMVEAVLKDKKRVMPVAAYLTGQYGLNDIYFGVPVILGAGGVEKILELPLNEEEMALLNASAKAVRATLDTLKSL
As to B1, the melting temperature (Tm) by setting is: (pH 4.4, sodium acetate 10 mM) 80.4 °C; (pH 6, potassium phosphate 10 mM) 79.4 °C; (pH 7.5, potassium phosphate 10 mM) 67.8 °C.

What is called Tm is the temperature at the midpoint of the melting transition.
